Measurements: publication PMC7939549, “LAP2alpha maintains a mobile and low assembly state of A-type lamins in the nuclear interior” (eLife, 2021)

Molecular target: T1, lamin A/C (endogenous, mEos3.2-lamin A/C WT mouse dermal fibroblasts) (mouse (endogenous in mouse dermal …, UniProt P48678 1-647))
T1 construct: lamins A and C, both products of the mouse Lmna gene, precipitated together by lamin A/C antibodies; WT clone #21 expresses mEos3.2-tagged lamin A/C (mEos3.2 in frame before the first codon, N-terminal) from 1 allele and untagged lamin A/C from 3 alleles; the precipitated pool holds tagged and untagged lamins A and C; also called lamins A and C; A-type lamins; source: endogenous, mEos3.2-Lmna WT …
T1 sequence (looked up): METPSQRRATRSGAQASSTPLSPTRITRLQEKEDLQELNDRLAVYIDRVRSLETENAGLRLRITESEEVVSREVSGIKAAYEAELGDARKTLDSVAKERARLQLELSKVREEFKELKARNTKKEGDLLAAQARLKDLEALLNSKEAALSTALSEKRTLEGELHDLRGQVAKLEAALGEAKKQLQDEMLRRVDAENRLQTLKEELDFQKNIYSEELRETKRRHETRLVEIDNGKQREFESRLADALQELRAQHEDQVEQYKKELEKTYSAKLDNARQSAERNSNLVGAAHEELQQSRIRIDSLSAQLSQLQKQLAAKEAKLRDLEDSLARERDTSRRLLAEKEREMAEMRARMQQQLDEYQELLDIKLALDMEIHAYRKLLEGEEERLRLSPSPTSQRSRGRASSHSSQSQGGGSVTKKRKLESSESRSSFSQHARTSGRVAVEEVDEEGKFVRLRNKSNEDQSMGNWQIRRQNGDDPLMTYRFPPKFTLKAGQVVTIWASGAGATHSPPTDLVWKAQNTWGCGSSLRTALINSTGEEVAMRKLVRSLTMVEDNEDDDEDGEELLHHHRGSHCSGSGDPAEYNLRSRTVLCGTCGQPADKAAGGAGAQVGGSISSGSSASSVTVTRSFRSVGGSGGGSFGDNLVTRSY
Experiment: not stated; our unpublished data; ratio of mEos3.2-lamin A and LAP2α in the complex

stoichiometry N: 1
B1: LAP2α (endogenous, mouse dermal fibroblasts) (natural protein, UniProt Q61033 1-693, looked up)
chain: MPEFLEDPSVLTKDKLKSELVANNVTLPAGEQRKDVYVQLYLQHLTARNRPPLAAGANSKGPPDFSSDEEREPTPVLGSGASVGRGRGAVGRKATKKTDKPRLEDKDDLDVTELSNEELLDQLVRYGVNPGPIVGTTRKLYEKKLLKLREQGTESRSSTPLPTVSSSAENTRQNGSNDSDRYSDNDEGKKKEHKKVKSARDCVPFSELASTPSGAFFQGISFPEISTRPPLGRTELQAAKKVQTTKRDPPRETCTDTALPGKGQTHKLAPGRSLFIPSESSYDRCVEKSSSPSSQREFAARLVSAAASPSLIRETTTTYSKDIVENICRGGKSRAQPLRAEEPGVSDQSVFSSEREVLQESERSQVISPPLAQAIRDYVNSLLVQGGVGSLPGTSDSVPTLDVENICKRLSQSSYQDSESLSPPRKVPRLSEKPARGGDSGSCVAFQNTPGSEHRSSFAKSVVSHSLTTLGVEVSKPPPQHDKIEASEPSFPLHESILKVVEEEWQQIDRQLPSVACRYPVSSIEAARILSVPKVDDEILGFISEATPRAATQASSTESCDKHLDLALCRSYEAAASALQIAAHTAFVAKSLQADISQAAQIINSDPSDAQQALRILNRTYDAASYLCDAAFDEVRMSACAMGSSTMGRRYLWLKDCKISPASKNKLTVAPFKGGTLFGGEVHKVIKKRGNKQ
notes: lamin-associated polypeptide 2 alpha (LAP2α), mouse, endogenous, detected with antibody 1H11; also called lamin-associated polypeptide 2 alpha; source: endogenous, mEos3.2-Lmna WT mouse dermal fibroblasts, soluble cell extract
